We go through 18 molecules from US20210261668A1 (DRAGONFLY THERAPEUTICS, published 2021).

Assay in all cases: ELISA on coated NKG2D-Fc
On the technique in general: ELISA stands for enzyme-linked immunosorbent assay.

Assay [1] addresses T1, mouse NKG2D-Fc fusion protein (mouse; human, UniProt O54709 90-232).
T1 construct: extracellular domain; also called mouse recombinant NKG2D-Fc; recombinant mouse NKG2D-Fc; not shown: human IgG1 Fc domain
T1 sequence (looked up): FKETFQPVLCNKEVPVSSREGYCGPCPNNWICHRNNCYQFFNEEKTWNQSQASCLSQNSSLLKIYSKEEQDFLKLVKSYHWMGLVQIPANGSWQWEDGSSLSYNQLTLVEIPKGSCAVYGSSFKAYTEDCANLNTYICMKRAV

Assay [2] addresses T2, human NKG2D-Fc fusion protein (human, UniProt P26718 73-216).
T2 construct: extracellular domain; also called recombinant human NKG2D-Fc; human recombinant NKG2D; not shown: human IgG1 Fc domain
T2 sequence (looked up): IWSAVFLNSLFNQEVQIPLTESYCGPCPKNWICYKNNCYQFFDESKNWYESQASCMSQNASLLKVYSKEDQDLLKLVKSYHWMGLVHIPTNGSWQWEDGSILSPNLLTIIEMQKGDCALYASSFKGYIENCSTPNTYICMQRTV

For assay [3], the target named is T3, cynomolgus NKG2D-Fc fusion protein (cynomolgus; human, UniProt P61252 73-216).
T3 construct: extracellular domain; also called cynomolgus recombinant NKG2D-Fc; cynomolgus recombinant NKG2D; not shown: human IgG1 Fc domain
T3 sequence (looked up): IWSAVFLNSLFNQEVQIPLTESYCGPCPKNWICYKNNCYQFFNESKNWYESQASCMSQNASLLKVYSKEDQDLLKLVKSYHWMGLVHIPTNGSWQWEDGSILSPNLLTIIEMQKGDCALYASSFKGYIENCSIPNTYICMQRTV

B1: ADI-29443 (antibody, V domains shown)
VH: QLQLQESGPGLVKPSETLSLTCTVSGGSISSSSYYWGWIRQPPGKGLEWIGSIYYSGSTYYNPSLKSRVTISVDTSKNQFSLKLSSVTAADTAVYYCARGSDRFHPYFDYWGQGTLVTVSS
VL: EIVLTQSPATLSLSPGERATLSCRASQSVSRYLAWYQQKPGQAPRLLIYDASNRATGIPARFSGSGSGTDFTLTISSLEPEDFAVYYCQQFDTWPPTFGGGTKVEIK
notes: also called F43
Regarding B1, the binding result in assay [1] and in assay [2] was “binds” in each case.

B2: ADI-27705 (antibody, V domains shown)
VH: QVQLQQWGAGLLKPSETLSLTCAVYGGSFSGYYWSWIRQPPGKGLEWIGEIDHSGSTNYNPSLKSRVTISVDTSKNQFSLKLSSVTAADTAVYYCARARGPWSFDPWGQGTLVTVSS
VL: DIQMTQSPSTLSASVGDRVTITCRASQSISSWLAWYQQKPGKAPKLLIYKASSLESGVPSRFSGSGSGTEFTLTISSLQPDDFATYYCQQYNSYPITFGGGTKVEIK
On to B2, for which the binding result in assay [3], in assay [1] and in assay [2] was “binds” each time.

B3: ADI-29403 (antibody, V domains shown)
VH: QVQLQQWGAGLLKPSETLSLTCAVYGGSFSGYYWSWIRQPPGKGLEWIGEIDHSGSTNYNPSLKSRVTISVDTSKNQFSLKLSSVTAADTAVYYCARARGPWSFDPWGQGTLVTVSS
VL: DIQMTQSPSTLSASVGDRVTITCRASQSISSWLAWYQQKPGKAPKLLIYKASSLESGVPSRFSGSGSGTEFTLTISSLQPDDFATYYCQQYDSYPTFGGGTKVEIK
Turning to B3, the binding result in assay [3], in assay [1] and in assay [2] was “binds” throughout.

B4: ADI-29424 (antibody, V domains shown)
VH: QVQLQQWGAGLLKPSETLSLTCAVYGGSFSGYYWSWIRQPPGKGLEWIGEIDHSGSTNYNPSLKSRVTISVDTSKNQFSLKLSSVTAADTAVYYCARARGPWSFDPWGQGTLVTVSS
VL: DIQMTQSPSTLSASVGDRVTITCRASQSISSWLAWYQQKPGKAPKLLIYKASSLESGVPSRFSGSGSGTEFTLTISSLQPDDFATYYCQQYDSFITFGGGTKVEIK
B4: the binding result in assay [3], in assay [1] and in assay [2] was “binds” in each case.

B5: ADI-29404 (antibody, V domains shown)
VH: QVQLQQWGAGLLKPSETLSLTCAVYGGSFSGYYWSWIRQPPGKGLEWIGEIDHSGSTNYNPSLKSRVTISVDTSKNQFSLKLSSVTAADTAVYYCARARGPWSFDPWGQGTLVTVSS
VL: DIQMTQSPSTLSASVGDRVTITCRASQSISSWLAWYQQKPGKAPKLLIYKASSLESGVPSRFSGSGSGTEFTLTISSLQPDDFATYYCEQYDSYPTFGGGTKVEIK
notes: also called F04
As to B5, the binding result in assay [3], in assay [1] and in assay [2] was “binds” throughout.

B6: ADI-27740 (antibody, V domains shown)
VH: QVQLQQWGAGLLKPSETLSLTCAVYGGSFSGYYWSWIRQPPGKGLEWIGEIDHSGSTNYNPSLKSRVTISVDTSKNQFSLKLSSVTAADTAVYYCARARGPWSFDPWGQGTLVTVSS
VL: DIQMTQSPSTLSASVGDRVTITCRASQSIGSWLAWYQQKPGKAPKLLIYKASSLESGVPSRFSGSGSGTEFTLTISSLQPDDFATYYCQQYHSFYTFGGGTKVEIK
notes: also called A40
With B6, the binding result in assay [3], in assay [1] and in assay [2] was “binds” in each case.

B7: ADI-29419 (antibody, V domains shown)
VH: QVQLQQWGAGLLKPSETLSLTCAVYGGSFSGYYWSWIRQPPGKGLEWIGEIDHSGSTNYNPSLKSRVTISVDTSKNQFSLKLSSVTAADTAVYYCARARGPWSFDPWGQGTLVTVSS
VL: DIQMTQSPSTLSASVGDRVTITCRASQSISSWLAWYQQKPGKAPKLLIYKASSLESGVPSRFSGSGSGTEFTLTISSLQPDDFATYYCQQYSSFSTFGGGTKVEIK
For B7, the binding result in assay [3], in assay [1] and in assay [2] was “binds” each time.

B8: ADI-29407 (antibody, V domains shown)
VH: QVQLQQWGAGLLKPSETLSLTCAVYGGSFSGYYWSWIRQPPGKGLEWIGEIDHSGSTNYNPSLKSRVTISVDTSKNQFSLKLSSVTAADTAVYYCARARGPWSFDPWGQGTLVTVSS
VL: DIQMTQSPSTLSASVGDRVTITCRASQSISSWLAWYQQKPGKAPKLLIYKASSLESGVPSRFSGSGSGTEFTLTISSLQPDDFATYYCQQYQSFPTFGGGTKVEIK
Regarding B8, the binding result in assay [3], in assay [1] and in assay [2] was “binds” in each case.

B9: ADI-29429 (antibody, V domains shown)
VH: QVQLQQWGAGLLKPSETLSLTCAVYGGSFSGYYWSWIRQPPGKGLEWIGEIDHSGSTNYNPSLKSRVTISVDTSKNQFSLKLSSVTAADTAVYYCARARGPWSFDPWGQGTLVTVSS
VL: DIQMTQSPSTLSASVGDRVTITCRASQSIGSWLAWYQQKPGKAPKLLIYKASSLESGVPSRFSGSGSGTEFTLTISSLQPDDFATYYCQQYELYSYTFGGGTKVEIK
In the case of B9, the binding result in assay [3], in assay [1] and in assay [2] was “binds” throughout.

B10: ADI-29399 (antibody, V domains shown)
VH: QVQLQQWGAGLLKPSETLSLTCAVYGGSFSGYYWSWIRQPPGKGLEWIGEIDHSGSTNYNPSLKSRVTISVDTSKNQFSLKLSSVTAADTAVYYCARARGPWSFDPWGQGTLVTVSS
VL: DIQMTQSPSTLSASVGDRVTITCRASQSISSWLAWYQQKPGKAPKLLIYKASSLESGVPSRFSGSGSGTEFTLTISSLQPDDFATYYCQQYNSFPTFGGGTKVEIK
With B10, the binding result in assay [3], in assay [1] and in assay [2] was “binds” each time.

B11: ADI-28226 (antibody, V domains shown)
VH: QVQLQQWGAGLLKPSETLSLTCAVYGGSFSGYYWSWIRQPPGKGLEWIGEIDHSGSTNYNPSLKSRVTISVDTSKNQFSLKLSSVTAADTAVYYCARARGPWSFDPWGQGTLVTVSS
VL: DIQMTQSPSTLSASVGDRVTITCRASQSISSWLAWYQQKPGKAPKLLIYKASSLESGVPSRFSGSGSGTEFTLTISSLQPDDFATYYCQQYGSFPITFGGGTKVEIK
notes: also called C26
On to B11, for which the binding result in assay [3], in assay [1] and in assay [2] was “binds” in each case.

B12: ADI-29405 (antibody, V domains shown)
VH: QVQLQQWGAGLLKPSETLSLTCAVYGGSFSGYYWSWIRQPPGKGLEWIGEIDHSGSTNYNPSLKSRVTISVDTSKNQFSLKLSSVTAADTAVYYCARARGPWSFDPWGQGTLVTVSS
VL: DIQMTQSPSTLSASVGDRVTITCRASQSISSWLAWYQQKPGKAPKLLIYKASSLESGVPSRFSGSGSGTEFTLTISSLQPDDFATYYCQQYGSFPTFGGGTKVEIK
Consider B12, for which the binding result in assay [3], in assay [1] and in assay [2] was “binds” each time.

B13: ADI-29421 (antibody, V domains shown)
VH: QVQLQQWGAGLLKPSETLSLTCAVYGGSFSGYYWSWIRQPPGKGLEWIGEIDHSGSTNYNPSLKSRVTISVDTSKNQFSLKLSSVTAADTAVYYCARARGPWSFDPWGQGTLVTVSS
VL: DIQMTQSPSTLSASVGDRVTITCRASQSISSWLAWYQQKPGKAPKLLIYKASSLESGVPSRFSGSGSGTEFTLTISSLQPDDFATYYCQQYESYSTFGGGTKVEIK
With B13, the binding result in assay [3], in assay [1] and in assay [2] was “binds” each time.

B14: ADI-27743 (antibody, V domains shown)
VH: QVQLQQWGAGLLKPSETLSLTCAVYGGSFSGYYWSWIRQPPGKGLEWIGEIDHSGSTNYNPSLKSRVTISVDTSKNQFSLKLSSVTAADTAVYYCARARGPWSFDPWGQGTLVTVSS
VL: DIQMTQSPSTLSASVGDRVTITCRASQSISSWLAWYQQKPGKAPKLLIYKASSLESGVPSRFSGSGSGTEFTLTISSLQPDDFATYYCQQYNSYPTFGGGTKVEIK
On to B14, for which the binding result in assay [3], in assay [1] and in assay [2] was “binds” throughout.

B15: ADI-27741 (antibody, V domains shown)
VH: QVQLQQWGAGLLKPSETLSLTCAVYGGSFSGYYWSWIRQPPGKGLEWIGEIDHSGSTNYNPSLKSRVTISVDTSKNQFSLKLSSVTAADTAVYYCARARGPWSFDPWGQGTLVTVSS
VL: DIQMTQSPSTLSASVGDRVTITCRASQSIGSWLAWYQQKPGKAPKLLIYKASSLESGVPSRFSGSGSGTEFTLTISSLQPDDFATYYCQQSNSYYTFGGGTKVEIK
With B15, the binding result in assay [3], in assay [1] and in assay [2] was “binds” throughout.

B16: ADI-29401 (antibody, V domains shown)
VH: QVQLQQWGAGLLKPSETLSLTCAVYGGSFSGYYWSWIRQPPGKGLEWIGEIDHSGSTNYNPSLKSRVTISVDTSKNQFSLKLSSVTAADTAVYYCARARGPWSFDPWGQGTLVTVSS
VL: DIQMTQSPSTLSASVGDRVTITCRASQSIGSWLAWYQQKPGKAPKLLIYKASSLESGVPSRFSGSGSGTEFTLTISSLQPDDFATYYCQQYDIYPTFGGGTKVEIK
With B16, the binding result in assay [3], in assay [1] and in assay [2] was “binds” each time.

B17: ADI-29425 (antibody, V domains shown)
VH: QVQLQQWGAGLLKPSETLSLTCAVYGGSFSGYYWSWIRQPPGKGLEWIGEIDHSGSTNYNPSLKSRVTISVDTSKNQFSLKLSSVTAADTAVYYCARARGPWSFDPWGQGTLVTVSS
VL: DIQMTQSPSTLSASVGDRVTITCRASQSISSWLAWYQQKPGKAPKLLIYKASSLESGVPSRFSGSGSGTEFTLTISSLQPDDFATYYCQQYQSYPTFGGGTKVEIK
For the molecule B17, the binding result in assay [3], in assay [1] and in assay [2] was “binds” in each case.

B18: ADI-27727 (antibody, V domains shown)
VH: QVQLVQSGAEVKKPGSSVKVSCKASGGTFSSYAISWVRQAPGQGLEWMGGIIPIFGTANYAQKFQGRVTITADESTSTAYMELSSLRSEDTAVYYCARGDSSIRHAYYYYGMDVWGQGTTVTVSS
VL: not shown
Regarding B18, the binding result in assay [3], in assay [1] and in assay [2] was “binds” each time.
